Measurements as given in PMC7108746.

Target: transmembrane Crumbs2 (CRB2TM) (mouse (endogenous in E15.5 spinal cord sections)) (UniProt Q80YA8)
UniProt Q80YA8, sequence (Q80YA8 36-1282): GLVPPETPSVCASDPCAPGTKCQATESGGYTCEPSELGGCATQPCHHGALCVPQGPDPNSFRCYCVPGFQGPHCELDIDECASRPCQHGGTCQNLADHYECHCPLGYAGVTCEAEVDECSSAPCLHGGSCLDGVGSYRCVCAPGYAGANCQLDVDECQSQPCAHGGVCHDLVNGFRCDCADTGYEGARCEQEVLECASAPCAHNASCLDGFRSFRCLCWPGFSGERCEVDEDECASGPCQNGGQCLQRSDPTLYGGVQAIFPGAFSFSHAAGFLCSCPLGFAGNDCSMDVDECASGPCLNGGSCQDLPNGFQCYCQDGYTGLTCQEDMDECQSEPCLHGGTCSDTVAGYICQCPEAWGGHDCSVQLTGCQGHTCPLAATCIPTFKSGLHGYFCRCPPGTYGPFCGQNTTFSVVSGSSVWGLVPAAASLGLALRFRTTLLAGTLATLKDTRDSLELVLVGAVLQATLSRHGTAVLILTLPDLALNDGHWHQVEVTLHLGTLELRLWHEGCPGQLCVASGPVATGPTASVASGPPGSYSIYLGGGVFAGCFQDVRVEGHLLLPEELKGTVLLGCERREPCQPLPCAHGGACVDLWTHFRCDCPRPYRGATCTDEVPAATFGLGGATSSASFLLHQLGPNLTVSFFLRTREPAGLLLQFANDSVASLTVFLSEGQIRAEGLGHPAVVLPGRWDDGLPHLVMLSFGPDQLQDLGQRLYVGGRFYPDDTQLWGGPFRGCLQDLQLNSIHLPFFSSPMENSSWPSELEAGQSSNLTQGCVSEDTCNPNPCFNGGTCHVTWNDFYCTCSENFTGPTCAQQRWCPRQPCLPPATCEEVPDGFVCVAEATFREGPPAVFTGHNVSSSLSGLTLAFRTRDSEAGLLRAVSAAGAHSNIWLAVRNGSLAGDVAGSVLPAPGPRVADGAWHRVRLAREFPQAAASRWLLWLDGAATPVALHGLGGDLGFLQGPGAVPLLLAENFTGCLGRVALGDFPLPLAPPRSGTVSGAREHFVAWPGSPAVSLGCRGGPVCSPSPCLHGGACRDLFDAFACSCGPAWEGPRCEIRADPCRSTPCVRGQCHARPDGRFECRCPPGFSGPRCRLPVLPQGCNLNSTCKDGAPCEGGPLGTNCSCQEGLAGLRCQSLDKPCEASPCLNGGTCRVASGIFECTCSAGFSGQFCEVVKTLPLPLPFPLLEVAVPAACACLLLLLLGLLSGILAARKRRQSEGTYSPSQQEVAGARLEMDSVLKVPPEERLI

- apically localised ZO-1 in MDCK cells seeded at high density and cultured with high concentrations of CRB2S (77% of cells in control medium): 23%
Substance: secreted Crumbs2 (CRB2S), His-tagged (natural protein)
